# Results as given in US20180362582A1 (SOCPRA SCIENCES SANT ET HUMAINES S E C, published 2018).
# Numbered stars: 1 amine (or outer) side, 2 acyl side, 3 side chain; on linkers, the order of the positions; unused ones are H or OH. Bridge positions count the residues as written; N and C are the ends. Square brackets hold non-standard residues; d marks the D form. Ends that are not written are not given here. * marks the point of attachment. nonenoic acid = non-8-enoic acid residue (acyl cap with no amine) whose terminal alkene closes the ring by metathesis with the o-allyl-tyrosine, C=CCCCCCCC(=O)*; Tyr(3-All) = 3-allyl-tyrosine (allyl on ring carbon ortho to the phenol OH), C=CCc1cc(C[C@H](N[*:1])C(=O)[*:2])ccc1O[*:3]; OctenylA = alpha-methyl-octenylalanine = 2-(7-octenyl)alanine; 6‑(allylamino)hexanoyl = C=CCNCCCCCC(=O)*
# T1: rat NTS2-YFP receptor (rat, UniProt Q63384 1-416)
# T1 construct: whole, on cells; Used as cell membranes of transfected DRG-F11 cells; also called rNTS2-YFP; rNTS2
# T1 sequence (Q63384 whole entry, looked up): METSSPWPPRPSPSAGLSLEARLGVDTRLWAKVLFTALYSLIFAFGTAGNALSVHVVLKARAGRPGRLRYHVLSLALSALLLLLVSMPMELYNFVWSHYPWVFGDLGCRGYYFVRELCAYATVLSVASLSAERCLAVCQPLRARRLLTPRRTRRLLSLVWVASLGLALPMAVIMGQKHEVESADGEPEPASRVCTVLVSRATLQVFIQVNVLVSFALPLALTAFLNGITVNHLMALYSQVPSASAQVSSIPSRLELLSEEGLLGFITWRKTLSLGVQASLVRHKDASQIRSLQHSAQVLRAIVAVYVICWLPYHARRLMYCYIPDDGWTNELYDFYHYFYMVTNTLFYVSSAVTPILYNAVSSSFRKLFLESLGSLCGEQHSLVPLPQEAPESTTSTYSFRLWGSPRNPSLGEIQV
# B1: 1-M (or 1) c[nonenoic acid KPY(All)]IL (peptide)
# peptide: {nonenoic acid}-KP[Tyr(3-All)]IL
# modifications: staple (positions not given here); not fully specified (bridges)
# notes: Macrocycle; E and Z isomers were not separated; also called compound 1
# B2: 6 c[aminohex-6-enoic acid(All)KPY(All)]IL (peptide)
# peptide: {6‑(allylamino)hexanoyl}-KP[Tyr(3-All)]IL
# modifications: staple (positions not given here); not fully specified (bridges)
# notes: also called compound 6
# B3: 9 c[K(butenyl)KPY(All)]IL (peptide)
# peptide: XKPXIL
# modifications: residue 1 is N-butenyl-lysine; Tyr is o-allyl-tyrosine; the two joined by ring-closing metathesis; 24 ring atoms
# notes: also called compound 9
# B4: 10 c[K(pentenyl)KPY(All)]IL (peptide)
# peptide: XKPXIL
# modifications: residue 1 is N-pentenyl-lysine; Tyr is o-allyl-tyrosine; the two joined by ring-closing metathesis; 25 ring atoms
# notes: also called compound 10
# B5: NT 8-13 RRPYIL (peptide)
# peptide: RRPYIL
# notes: also called neurotensin (8-13)
# B6: 3 c[OctenylAKPY(All)]IL (peptide)
# peptide: [OctenylA]KPXIL
# modifications: staple 1-4; not fully specified (residue 4); printed as 3 c[OctenylAKPY(All)]IL
# notes: Diastereoisomer of compound 12; also called compound 3
# What was measured:
# hNTS1 receptor [1] = target: T2, hNTS1 receptor (human (printed as hNTS1), UniProt P30989 1-418); experiment: cell-based or functional assay
# [2] = target: hNTS1-Green fluorescent protein 10(GFP10) (human (printed as hNTS1), UniProt P30989 1-418); experiment: cell-based or functional assay
# hNTS1 receptor [3] = target: T2, hNTS1 receptor; experiment: competitive radioligand binding, 125I-[Tyr3]-NT, CHO-K1 membranes expressing hNTS1
# hNTS1 receptor [4] = target: T2, hNTS1 receptor; experiment: competitive radioligand binding, 125I-[Tyr3]-NT, CHO-K1 membranes expressing hNTS1; Ki by Cheng-Prusoff
# rat NTS2-YFP receptor [5] = target: T1, rat NTS2-YFP receptor; experiment: competitive radioligand binding, 125I-[Tyr3]-NT, DRG-F11 membranes expressing rNTS2-YFP
# Protocol: (§1) DRG-F11 cells were cultured in DMEM supplemented with 10% FBS, 100 U/mL penicillin, 100 μg/mL streptomycin, and 20 mM HEPES. DRG-F11 were seeded at 2.2×10⁶ cells in a 10 cm Petri dish and transfected 24 h after plating with 10 μg of DNA coding for the rat NTS2-YFP receptor using Xtreme Gene™ HP as a transfection agent. Membrane preparation was conducted 48 h after transfection, as described below.
# (§2) Transfected cells expressing the rNTS2-YFP receptor were used 48 h after transfection. Membranes were prepared by scraping cells off the culture dish with 50 mM Tris ph 7.5 and centrifuged at 15,000 g for 5 min at 4° C. The pellet was resuspended in 10 mM Tris, 1 mM EDTA pH 7.5 and sonicated for 30 s prior to be centrifugated at 15,000 g for 30 min at 4° C. The pellet was then re-suspended in binding 9 buffer. […] All other steps in binding experiments were unchanged comparing to the one using the NTS1 receptor.
# rat NTS2-YFP receptor [6] = target: T1, rat NTS2-YFP receptor; experiment: displacement of radiolabeled neurotensin from rNTS2-YFP membranes by a single 1 µM dose
# Protocol: as §1, §2
# rat NTS2-YFP receptor [7] = target: rat NTS2-YFP receptor (rat, UniProt Q63384 1-416); experiment: as above
# Protocol: as §1, §2
# T2 sequence (P30989 whole entry): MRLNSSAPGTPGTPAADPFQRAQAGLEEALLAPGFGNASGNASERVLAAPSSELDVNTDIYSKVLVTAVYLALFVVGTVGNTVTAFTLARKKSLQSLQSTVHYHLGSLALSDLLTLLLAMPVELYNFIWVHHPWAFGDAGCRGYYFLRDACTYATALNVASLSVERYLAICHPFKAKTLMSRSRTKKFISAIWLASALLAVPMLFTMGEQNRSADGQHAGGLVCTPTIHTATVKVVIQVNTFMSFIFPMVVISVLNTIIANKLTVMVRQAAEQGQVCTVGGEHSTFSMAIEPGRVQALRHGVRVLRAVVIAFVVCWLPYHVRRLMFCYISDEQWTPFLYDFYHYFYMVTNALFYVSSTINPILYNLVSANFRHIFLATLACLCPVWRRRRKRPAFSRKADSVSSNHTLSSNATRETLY
# hNTS1-Green fluorescent protein 10(GFP10), sequence (P30989 whole entry): as above
Binder,EC50 β-arr1 [2] [nM],Ki (hNTS1 receptor [4]) [nM],IC50 (rat NTS2-YFP receptor [5]) [nM],% displ at 1 µM (rat NTS2-YFP receptor [6]) [%],also measured
B1,1500,5600,–,–,EC50 G13 (hNTS1 receptor [1]): 433 nM; IC50 (hNTS1 receptor [3]): 394 nM
B2,96,656,2300,93,–
B3,–,–,47.2,104,–
B4,–,–,128,105,–
B5,–,–,–,–,% displ at 1 µM (rat NTS2-YFP receptor [7]): 100%
B6,–,–,–,96,–
